{"source": "the DeepSol protein solubility set", "data": [{"assay": "soluble on expression in E. coli; label from the status in PepcDB or PDB records", "values": [{"sequence": "SSLIQAGQQTRFTTDASAAVEPADSARETWSRGVLVAWDMTLGDVVKELRRYRSGYLGIAPEVAGLRVFGSFPLRDTDDTLTMLASALPIRIQRTLPWWVSIEARTDADPHR", "soluble on expression in E. coli": "not soluble"}, {"sequence": "MVINIRRSRPDEGDKLTAIWCRSVDATHDFLTKAYRKELEEMVRAFLPEAPLWVAVSTEDQPIAFMLLTGDHMDALFVDPDVRGCGVGKLLIEHALSLTPKLTTNVNEQNEQAVGFYQKMGFRVTGRSETDDLGQPYPLLNLMYEQQAEADYD", "soluble on expression in E. coli": "not soluble"}, {"sequence": "MWITQEITPYLRKEYTIEAKLLDVRSEHNILEIFKSKDFGEIAMLNRQLLFKNFLHIESELLAHMGGCTKKELKEVLIVDGFDLELAHQLFKYDTHIDFVQADEKILDSFISFFPHFHEVKNNKNFTHAKQLLDLDIKKYDLIFCLQEPDIHRIDGLKRMLKEDGVFISVAKHPLLEHVSMQNALKNMGGVFSVAMPFVAPLRILSNKGYIYASFKTHPLKDLMTPKIEALTSVRYYNEDIHRAAFALPKNLQEVFKDNIKS", "soluble on expression in E. coli": "soluble"}, {"sequence": "PSTLLKNYQDNNKMLVLALENEKSKVKEAQDIILQLRKECYYLTCQL", "soluble on expression in E. coli": "soluble"}, {"sequence": "MGSDKIHHHHHHAVTTGNTPVTAEFAGGTLPDGNGVPNTVDPDPTKPNSNFDLLFIPREYDFGKLSISDDLTKPIPNKTDEGRAGNVESVGVGDIRGSKEGWHVTAQSTGMKLGEESLEGSITTGAMFLYPLIYNEETKTYDYQSADLADPVTKPETVDTTAFSIALGGDAVLLANATAGKGQGLWQFSFRPYLNITTPAYNIKAGAYTGNITWNLVAGPSI", "soluble on expression in E. coli": "not soluble"}, {"sequence": "DLRGDLHMHTDYSEGAESLETMVEKAESMGYEYIAVTDHSRSQRIANGMDIETLKEQWKEIKSLSKRFRIKVLRGSEVEILKDGSLDYPDEILKELDVVVGAVHSGFAASEREMTGRIITALENKHLDILAHPSGRLLGKREAYAVNFGKVFEAAAENGKVMEINCQPSRLDLNDELIFRAKDYELKFCISTDSHSVSDLASMRYGLGQARRSWLEKEDIVNTYPYSRLKEVFKKLRD", "soluble on expression in E. coli": "not soluble"}, {"sequence": "MSLWEFYMPTDVFFGEKILEKRGNIIDLLGKRALVVTGKSSSKKNGSLDDLKKLLDETEISYEIFDEVEENPSFDNVMKAVERYRNDSFDFVVGLGGGSPMDFAKAVAVLLKEKDLSVEDLYDREKVKHWLPVVEIPTTAGTGSEVTPYSILTDPEGNKRGCTLMFPVYAFLDPRYTYSMSDELTLSTGVDALSHAVEGYLSRKSTPPSDALAIEAMKIIHRNLPKAIEGNREARKKMFVASCLAGMVIAQTGTTLAHALGYPLTTEKGIKHGKATGMVLPFVMEVMKEEIPEKVDTVNHIFGGSLLKFLKELGLYEKVAVSSEELEKWVEKGSRAKHLKNTPGTFTPEKIRNIYREALGVEGGSHHHHHH", "soluble on expression in E. coli": "soluble"}, {"sequence": "SLSTVELSGTVVKQGYLAKQGHKRKNWKVRRFVLRKDPAFLHYYDPSKEENRPVGGFSLRGSLVSALEDNGVPTGVKGNVQGNLFKVITKDDTHYYIQASSKAERAEWIEAIKKLT", "soluble on expression in E. coli": "soluble"}, {"sequence": "MGSDKIHHHHHHMNLAYLILAHNNPNHLQKLISSLDTSDVHFFVHIDGKSNILPFQANLISNKVTFVQERRNIFWGEFSIVQATIDLMKTALNKQDFDYLILISGSDYPLKNAQYIKDFFSKNKGSEFINLVELPNEQASKNLNRLYQYRISFSSKNIVLRAFRRVINCIINDLFHWQRNYRKSLGELKPYAGSQWWALSGDACNYILNFIAKNPEILKFFQTALIPDESFFHTILANSDFLTKVKPNLTFTKWNDTAHPEYITVEIVRDFKGMDAIYNHSIGGYGEVLFARKFAPDSDEVIKFINDNIA", "soluble on expression in E. coli": "not soluble"}, {"sequence": "MTLPFKNGRGTMKINGVTIQMLPAASGDCIYLEFPDSDFRMLIDGGYAKTYQKYLKKFLLKLAAEGKRLNLIVVTHIDDDHISGIRALLKENGDSRNPKIIEIDEIWFNSLNQCITSRNAEQGMSFAVKIILKSMCSTDIDFECEYKKQNISYTNGKNLAELIQAGGYRWNASVVNNLVSKGQIVQFGDLKITILNPGIETLTKMGKKWLYHLKQINSNNIEITRDPLFDAAFEGFLLNNEKNIEFKQENISYSSEDLDWLDKYAEYKDIEMDSKITNCSSIAILIDYKDIKMLFPGDSPIQLFENELPKILDVIKLPHHGSAKNISLEFIKNTKVKYYLLSTDGKRYIDHPGKAVIANIIKNTGNNTELIKNYEIKFLKGLGKLDAED", "soluble on expression in E. coli": "not soluble"}, {"sequence": "MGSDKIHHHHHHMWQAISRLLEEHHGTADIQEHRELPGGEIHPAWYVRYGEHDVFVKCDSREMLAKFTAEADQLHLLSRSNTVRVPKVYGVGSSRDYSFLLLQYLPVKPLDAHSAWCLGEQLARLHQWSDQPQFGLDFDNDLSTTPQPNSWQRRWATFFAEQRIGWQLQLAAEKGMHFGHIETLIARVDERLAGHQPQPSLLHGDLWPDNCANSQDGGYLFDPACYWGDRECDLAMLPRYPALPAQIYDGYQSVWPLDKDFIDRQPIYQIYYLLNRANLFGGKNIVEAQQLIERQLLS", "soluble on expression in E. coli": "not soluble"}, {"sequence": "MSANREKKKLETVIKNLEKKIEDQKANAGTKKKEAEQKENLRIEQEKIKKKKEQERLEVPPTPFDDLNSQSAKTLRVEKAIENLKFLGGKSTEFYRRVIGRLGKSGLFKWKMSKREGFYLYHACGLTRRKLRTLKAHFSKSGCSDPFPSVHEIMKIEKIVGAGEQFSVTEHDKDGEEVVAAHLVDVIKYLTDRIHHLIDNGNLVIGTDPIWLTILGDKGSDEFKLCLSIGNAKNPNSCCHLIPLGIFNDDEKSSNISNDLTPIVAQLNSLKELKLKVAGTDVTVPVQQFLGGDMKFQYDVLGHQGASSQFHCMFCNSLKSRLIGGYIRGANVTLRTAASYKENSGKDGNNYARKKSVSIRSRQSTKCDPRSLHTLMGLAQRFGFDYLILWAARIDNPTLTLTKTDIKRSKISKGRLNQLQESLKKLEKVVSGMETVQQVFQNYKNKRVDGRSCGETCHASICLFKDKKMKSAKGYDGRKVECNTCFQAVHAVCGGLWTLDDWELTISIFRENNRHLNELRSDLREKKSVIFSQGLKIDMLESQLSQRQTEFEYRSANAAANSFTRKDHGKLYHCFDIKNQDSTSVSDTMTCRCSMKPCVFYLDSLPAAKTPSLTQLRRIVVLMQQKPSQKIDPKEMLLMTSMHLPFPMQEPSTEYFNAISGCSTSYICVEEMGIGFSFRRHVEKLWMKNLPPATNGTDKAANDLKNQLKVRRNVGKHDRTSRYARKSHN", "soluble on expression in E. coli": "not soluble"}, {"sequence": "SNAQVEVIVMMHGRSTATSMVETVQELLSIESGIALDMPLTVEVKAMYEKLKQTVVKLNPVKGVLILSDMGSLTSFGNILTEELGIRTKTVTMVSTPVVLEAMRKASLGRGLEDIYQSCEQLFENKYKAH", "soluble on expression in E. coli": "soluble"}, {"sequence": "MGSDKIHHHHHHMQQAIEQTATGGALRFNGICKVFPGVKALSDISFEARPGSVHALMGENGAGKSTLLKILGGSYQPNSGTLQIGEHSYQFKSTAESIAAGVAVIHQELHLVPEMTVAENLLLGHMPNRFGLINRGAMYRRAGELLKGLADEIDPRTRLGDLSLGQRQLVEIAKAMSRNAHVIAFDEPTSSLSAREIDRLMAIIVRLRDEGRVILYVSHRMEEIFRVCDAVTVFKDGRFVKTFEQMADLDHDRLVTCMVGRDIQDIYNYRPRQHQGPSLRVTGLLGLGLQEPVSFAVQKGEVLGFFGLVGAGRTELFRILSGLTRSTAGSLQLDGQPLTLKSPRDAIAAGVLLCPEDRKKEGIVPLSSVAENINIGARPRHVNLGCLIQGGWERDNARAQIKSMNVKTPSPEQQIMFLSGGNQQKAILGRWLSMPMKVLLLDEPTRGIDVGAKSEIYEIIHTLAADGIAVIVVSSDLMEVMGISDRILVMSEGAITGELNRDEADESRLLQLALPRTRG", "soluble on expression in E. coli": "not soluble"}, {"sequence": "MGSDKIHHHHHHMSKLAAFLGRAIPTHQQKQSSHLGDRTLYVGASDIAGCPRKAALGKQNPTGHDIKTLLRFSRGHAAQAMYADFFRTGGALFEEEVEVRHPAIPEIRCHIDFLFYANRQTKRLHIVEMKSTDGIPDEPYASWVDQLHVQMGLLQLTLDPAVEIGGSILVVDLNAGSYHEFNSYTPNRLVFDQLVEKGKHILAAARGECAPRTEPGILCGYCPFRTGCPSHAVALDLPREILDTGRKYLELNEQKKALENRLDVLKNDILTFADGTFKGASDGILINVTSVADSTTIDSYKLKRNYPDIYDQVTKPKSGYVKLEIKPFTPLAAQAA", "soluble on expression in E. coli": "not soluble"}]}]}
